These results are taken from patent US20120316071A1 (published 2012).

Substitutions are numbered along the chain they refer to. Names and notes keep the numbering of the source.

Assay [1] addresses T1, rHuman EGF R/Fc Chimera, CF (R&D Systems Cat#344-ER) (human, UniProt P00533 25-645).
T1 construct: Bought reagent; also called epidermal growth factor receptor; Fc part of the bought chimera not given
Nature of the assay: ECL Multispot (MSD), 10 nM Fab; blank of this row 363.

Assay [2] concerns the target T2, rHuman Erythropoietin R/Fc Chimera, CF (R&D Systems Cat#963-ER) (human, UniProt P19235 25-250).
T2 construct: Bought reagent; also called EPO R; EPO R/Fc; Fc part of the bought chimera not given
T2 sequence (looked up): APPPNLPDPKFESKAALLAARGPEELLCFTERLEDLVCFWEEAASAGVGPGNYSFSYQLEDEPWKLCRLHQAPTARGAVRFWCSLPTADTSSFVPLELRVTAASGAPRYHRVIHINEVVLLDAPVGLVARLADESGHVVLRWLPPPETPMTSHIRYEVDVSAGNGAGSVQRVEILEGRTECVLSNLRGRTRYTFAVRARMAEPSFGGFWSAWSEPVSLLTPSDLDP
Described as above.

Assay [3] concerns the target T3, rHuman P-Cadherin/Fc Chimera, CF (R&D Systems Cat#861-PC) (human, UniProt P22223 108-654).
T3 construct: Bought reagent; Fc part of the bought chimera not given
Described as above.

For assay [4], the target named is T4, rHuman CD44/Fc Chimera, CF (R&D Systems Cat#3660-CD) (human, UniProt P16070 21-220).
T4 construct: Bought reagent; Fc part of the bought chimera not given
The assay is described as above.

For assay [5], the target named is T5, rHuman HGF R/c-MET/Fc Chimera, CF (R&D Systems Cat#358-MT/CF) (human, UniProt P08581 25-932).
T5 construct: Bought reagent; also called HGF R/Fc; hepatocyte growth factor receptor; Fc part of the bought chimera not given
The assay is described as above.

The target in assay [6] is T6, rHuman Notch-1/Fc Chimera, CF (R&D Systems Cat#3647-TK) (human, UniProt P46531 19-526).
T6 construct: Bought reagent; Fc part of the bought chimera not given
Described as above.

Assay [7] addresses T7, rHuman ErbB2/Fc Chimera, CF (R&D Systems Cat#1129-ER) (human, UniProt P04626 23-652).
T7 construct: Bought reagent; also called human epidermal growth factor 2 receptor; Fc part of the bought chimera not given
The description is as above.

Assay [8] addresses T8, rHuman IGF-1 sR, (IGF-1 sR), CF (R&D Systems Cat#391-GR) (human, UniProt P08069 31-932).
T8 construct: Bought soluble receptor; also called insulin-like growth factor-1 soluble receptor
Described as above.

Assay [9] addresses T1, rHuman EGF R/Fc Chimera, CF (R&D …). Nature of the assay: ECL Multispot (MSD), 10 nM Fab; blank of this row 204.
Assay [10] concerns the target T2, rHuman Erythropoietin R/Fc Chimera, CF …. The assay is described as above.
The target in assay [11] is T3, rHuman P-Cadherin/Fc Chimera, CF (R&D …). The description is as above.
The target in assay [12] is T4, rHuman CD44/Fc Chimera, CF (R&D Systems …). The assay is described as above.
Assay [13] has as its target T5, rHuman HGF R/c-MET/Fc Chimera, CF (R&D …). The description is as above.
Assay [14] has as its target T6, rHuman Notch-1/Fc Chimera, CF (R&D …). The description is as above.
Assay [15] concerns the target T7, rHuman ErbB2/Fc Chimera, CF (R&D …). The assay is described as above.
In assay [16] the target is T8, rHuman IGF-1 sR, (IGF-1 sR), CF (R&D …). Described as above.
Assay [17] addresses T1, rHuman EGF R/Fc Chimera, CF (R&D …). Put plainly: ECL Multispot (MSD), 10 nM Fab; blank of this row 203.
Assay [18] deals with T2, rHuman Erythropoietin R/Fc Chimera, CF …. The assay is described as above.
The target in assay [19] is T3, rHuman P-Cadherin/Fc Chimera, CF (R&D …). The description is as above.
Assay [20] deals with T4, rHuman CD44/Fc Chimera, CF (R&D Systems …). The assay is described as above.
For assay [21], the target named is T5, rHuman HGF R/c-MET/Fc Chimera, CF (R&D …). Described as above.
The target of assay [22] is T6, rHuman Notch-1/Fc Chimera, CF (R&D …). The assay is described as above.
The target in assay [23] is T7, rHuman ErbB2/Fc Chimera, CF (R&D …). The assay is described as above.
For assay [24], the target named is T8, rHuman IGF-1 sR, (IGF-1 sR), CF (R&D …). The description is as above.

T5 sequence (P08581 25-932, change not shown): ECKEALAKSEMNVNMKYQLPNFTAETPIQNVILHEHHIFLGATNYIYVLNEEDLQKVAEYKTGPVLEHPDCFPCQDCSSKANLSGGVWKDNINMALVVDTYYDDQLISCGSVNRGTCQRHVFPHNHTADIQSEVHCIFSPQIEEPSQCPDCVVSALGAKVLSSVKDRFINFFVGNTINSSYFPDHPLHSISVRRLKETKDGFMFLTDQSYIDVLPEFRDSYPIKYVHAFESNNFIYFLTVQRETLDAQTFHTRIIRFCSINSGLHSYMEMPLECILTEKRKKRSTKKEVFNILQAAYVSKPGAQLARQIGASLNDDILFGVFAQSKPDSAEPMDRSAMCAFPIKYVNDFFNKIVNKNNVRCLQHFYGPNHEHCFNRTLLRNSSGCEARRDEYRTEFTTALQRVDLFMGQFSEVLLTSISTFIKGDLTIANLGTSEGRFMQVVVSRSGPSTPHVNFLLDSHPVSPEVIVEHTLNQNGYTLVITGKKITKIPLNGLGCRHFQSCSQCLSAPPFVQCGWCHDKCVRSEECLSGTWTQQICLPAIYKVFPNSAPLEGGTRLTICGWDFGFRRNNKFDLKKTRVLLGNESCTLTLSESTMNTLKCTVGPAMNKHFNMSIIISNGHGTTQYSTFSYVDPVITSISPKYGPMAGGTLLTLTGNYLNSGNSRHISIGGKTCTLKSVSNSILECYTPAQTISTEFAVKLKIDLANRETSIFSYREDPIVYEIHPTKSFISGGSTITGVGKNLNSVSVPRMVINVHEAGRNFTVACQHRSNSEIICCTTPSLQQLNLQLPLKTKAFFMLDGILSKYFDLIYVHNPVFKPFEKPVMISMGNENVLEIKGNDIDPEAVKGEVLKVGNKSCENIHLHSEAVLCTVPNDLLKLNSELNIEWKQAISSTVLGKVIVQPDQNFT

B1: Fab VH1-46_IGHD6-6*01_IGHJ1*01 S102A/S103P/S104F (APF) & L6_IGKJ1*01 (Fab, V domains shown)
VH: QVQLVQSGAEVKKPGASVKVSCKASGYTFTSYYMHWVRQAPGQGLEWMGIINPSGGSTSYAQKFQGRVTMTRDTSTSTVYMELSSLRSEDTAVYYCAREEYAPFSAEYFQHWGQGTLVTVSS
VL: not shown
notes: Tested as Fab made in E. coli; also called H:APF & L:wt; APF triple mutant
With B1, the ECL signal in assay [1] was 467; in [2], 494; in assay [3], 305; in [4], 345; in assay [5] it was 422; in [6], 376. Besides, the ECL signal in assay [7] came out at 525; in [8], 361; in assay [9] it was 394; in assay [10], 343; in assay [11] it was 118; in assay [12], 340. In addition, the ECL signal is 200 in [13], 283 in [14], 302 in [15] and 213 in assay [16].

B2: Fab VH1-46_IGHD6-6*01_IGHJ1*01 S102A/S103P/S104F H111S & L6_IGKJ1*01 (Fab, V domains shown)
VH: B1 VH with H111S
VL: not shown
notes: Fab format as for m1; also called APF H111S
In the case of B2, the ECL signal in [17] amounted to 286; in assay [18], 277; in assay [19], 178; in assay [20], 244; in assay [21], 235; in assay [22], 272. Also, the ECL signal stood at 314 in assay [23] and 136 in [24].
